Experiments:
Settings in all cases: both partners purified
[1] = target: T1, M.EcoKI, DNA methyltransferase component (M2S1) of the EcoKI type I R/M system (E. coli K12, UniProt P08957 1-529; P05719 1-464); experiment: ITC; as the Tris experiment but 20 mM Hepes in place of Tris-HCl, 25 °C, no NaCl
T1 construct: M subunit (DNA methyltransferase activity) of the EcoKI type I R/M system of E. coli K12; also called methyltransferase core; copies: 2 + 1
T1 sequence (looked up) 1: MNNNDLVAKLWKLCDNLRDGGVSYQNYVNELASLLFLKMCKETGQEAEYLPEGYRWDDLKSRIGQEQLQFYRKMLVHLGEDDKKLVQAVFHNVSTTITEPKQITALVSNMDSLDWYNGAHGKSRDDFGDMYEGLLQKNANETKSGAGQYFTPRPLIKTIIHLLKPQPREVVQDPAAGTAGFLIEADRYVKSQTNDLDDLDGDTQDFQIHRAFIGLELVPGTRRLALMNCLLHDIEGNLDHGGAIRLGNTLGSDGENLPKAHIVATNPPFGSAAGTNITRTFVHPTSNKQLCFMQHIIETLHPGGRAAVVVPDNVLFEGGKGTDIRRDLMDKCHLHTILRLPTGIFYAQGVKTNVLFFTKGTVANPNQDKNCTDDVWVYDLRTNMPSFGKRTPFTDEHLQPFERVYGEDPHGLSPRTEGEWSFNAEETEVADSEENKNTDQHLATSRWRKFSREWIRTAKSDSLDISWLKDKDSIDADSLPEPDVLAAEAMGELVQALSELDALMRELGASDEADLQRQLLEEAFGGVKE
T1 sequence (looked up) 2: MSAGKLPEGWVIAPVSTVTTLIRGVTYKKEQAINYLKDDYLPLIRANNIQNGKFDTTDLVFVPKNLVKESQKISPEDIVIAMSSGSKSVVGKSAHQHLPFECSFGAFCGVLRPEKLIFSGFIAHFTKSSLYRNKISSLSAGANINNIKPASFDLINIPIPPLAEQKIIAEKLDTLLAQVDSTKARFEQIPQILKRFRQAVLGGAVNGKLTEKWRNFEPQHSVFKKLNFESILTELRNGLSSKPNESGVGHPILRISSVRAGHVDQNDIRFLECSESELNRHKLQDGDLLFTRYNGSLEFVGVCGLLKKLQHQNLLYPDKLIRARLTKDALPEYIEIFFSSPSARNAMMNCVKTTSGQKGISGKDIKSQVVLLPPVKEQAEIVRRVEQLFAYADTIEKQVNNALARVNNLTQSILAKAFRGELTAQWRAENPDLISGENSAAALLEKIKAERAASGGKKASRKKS

[2] = target: T1, M.EcoKI, DNA methyltransferase …; experiment: ITC; Ocr (typically 40 uM) titrated into M.EcoKI (4 uM); 20 mM Tris-HCl pH 8.0, 6 mM MgCl2, 7 mM 2-mercaptoethanol, 100 uM SAM, with or without 500 mM NaCl; 10 to 30 °C
[3] = target: T1, M.EcoKI, DNA methyltransferase …; experiment: fluorescence polarisation; competition with DNA: M.EcoKI titrated into 50 nM Ocr and 2 nM of a 21-bp DNA duplex fluorescently labelled at the 5' end; anisotropy of the DNA monitored

B1: Ocr (overcome classical restriction) protein of bacteriophage T7, unmodified (natural protein, UniProt P03775 1-117, looked up)
chain: MAMSNMTYNNVFDHAYEMLKENIRYDDIRDTDDLHDAIHMAADNAVPHYYADIFSVMASEGIDLEFEDSGLMPDTKDVIRILQARIYEQLTIDLWEDAEDLLNEYLEEVEEYEEDEE
notes: Ocr, product of gene 0.3 of bacteriophage T7; 116-amino-acid monomer as printed; Homodimer; also called WT; wild type Ocr; source: plasmid pAR2993 with the gene encoding WT Ocr
For B1, the dH [1] was -21.5 kcal/mol, the dH [2] was -20.6 kcal/mol and the “stoichiometry N” value [2] was 1 Ocr dimer per molecule of M.EcoKI. It also gave a Kd [3] of 0.044 nM.

Source: PMC2806950, “Dissection of the DNA Mimicry of the Bacteriophage T7 Ocr Protein using Chemical Modification” (Journal of Molecular Biology, 2009)
